Measured values from article PMC5935755.

These substances were tested against ClpXP (ClpX ΔN-ter hexamer with ClpP tetradecamer) (UniProt P0A6H1).

Q: Which KM of ClpXP-mediated proteolysis (Michaelis-Menten analysis, loss of GFP fluorescence; 0.3 µM ClpX6, 0.9 µM ClpP14, 30 °C) does the source give for “GFP-BAP1 (UCH domain, residues 1-238, ssrA-tagged) (from UniProt Q92560 1-238)” here?
A: Its KM of ClpXP-mediated proteolysis (Michaelis-Menten analysis, loss of GFP fluorescence; 0.3 µM ClpX6, 0.9 µM ClpP14, 30 °C) is 0.64 µM.

Q: How did the KM of ClpXP-mediated proteolysis (Michaelis-Menten analysis, loss of GFP fluorescence; 0.3 µM ClpX6, 0.9 µM ClpP14, 30 °C) turn out when GFP-UCHL1 (ssrA-tagged) was run?
A: The KM of ClpXP-mediated proteolysis (Michaelis-Menten analysis, loss of GFP fluorescence; 0.3 µM ClpX6, 0.9 µM ClpP14, 30 °C) was 3.67 µM.

Q: With GFP-UCHL1_(I93M) (ssrA-tagged) as the substance, how does the KM of ClpXP-mediated proteolysis (Michaelis-Menten analysis, loss of GFP fluorescence; 0.3 µM ClpX6, 0.9 µM ClpP14, 30 °C) read?
A: The KM of ClpXP-mediated proteolysis (Michaelis-Menten analysis, loss of GFP fluorescence; 0.3 µM ClpX6, 0.9 µM ClpP14, 30 °C) was 4.47 µM.

Q: For GFP-UCHL3 (ssrA-tagged), which KM of ClpXP-mediated proteolysis (Michaelis-Menten analysis, loss of GFP fluorescence; 0.3 µM ClpX6, 0.9 µM ClpP14, 30 °C) is on record?
A: Its KM of ClpXP-mediated proteolysis (Michaelis-Menten analysis, loss of GFP fluorescence; 0.3 µM ClpX6, 0.9 µM ClpP14, 30 °C) is 2.59 µM.

Q: “GFP-UCHL5 (UCH domain, residues 1-240, ssrA-tagged) (from UniProt Q9Y5K5 1-240)” was tested. Which KM of ClpXP-mediated proteolysis (Michaelis-Menten analysis, loss of GFP fluorescence; 0.3 µM ClpX6, 0.9 µM ClpP14, 30 °C) did it give?
A: Its KM of ClpXP-mediated proteolysis (Michaelis-Menten analysis, loss of GFP fluorescence; 0.3 µM ClpX6, 0.9 µM ClpP14, 30 °C) is 1.85 µM.
